Experimental data from patent US20240059794A1 (PARASOL BIOTECH, published 2024).
Positions count from the first letter of the chain named.

Target: T1, GUCY2C protein (Ser24-Gln430) (Homo sapiens (Human), UniProt P25092 24-430)
T1 construct: Synthesized by GenScript and used as the immunogen; No tags are stated; also called extracellular region of the artificially synthesized GUCY2C protein; Protein GUCY2C
Assay: Screening ELISA: culture supernatant of the IPTG-induced HB2151 clone on a plate coated with 1 ug/ml GUCY2C; detection with peroxidase goat anti-alpaca IgG (VHH domain), TMB, absorbance at 450 nm; VHH concentration not given; negative control (NC) bar in the same chart is labelled 0.15
Experimental: The phages of 3 rounds screening were transfected into HB2151 bacteria, and 100 ul of infected HB2151 bacteria were taken to scrape on the surface of 2×YT-AG solid culture dish. 96 single clones were picked and added into 2×YT medium, then cultured in a 96 deep-well plate. 0.8 mM IPTG was added into the medium when the bacteria grew to logarithmic phase and were cultured overnight at 25° C. The supernatant of medium was added to the 1 ug/ml GUCY2C coated ELISA plate which was contained in two control wells. After incubating for 2 hours at 37° C., the plate was washed 3 times with PBST. Peroxidase AffiniPure Goat anti-Alpaca IgG, VHH domain (Jackson Immumo Research) was added into the Elisa plate, incubated at 37° C. for 1 hour and washed 3 times with PBST. TMB solution was added for 20 minutes, then the reaction was stopped with 2M sulfuric acid. The absorbance value at 450 nm wavelength was read on the microplate reader (FIG. 2). Clones with an absorbance value 2.1 times higher than the negative control were considered positive clones and were sent to sequencing.

T1 sequence (P25092 24-430): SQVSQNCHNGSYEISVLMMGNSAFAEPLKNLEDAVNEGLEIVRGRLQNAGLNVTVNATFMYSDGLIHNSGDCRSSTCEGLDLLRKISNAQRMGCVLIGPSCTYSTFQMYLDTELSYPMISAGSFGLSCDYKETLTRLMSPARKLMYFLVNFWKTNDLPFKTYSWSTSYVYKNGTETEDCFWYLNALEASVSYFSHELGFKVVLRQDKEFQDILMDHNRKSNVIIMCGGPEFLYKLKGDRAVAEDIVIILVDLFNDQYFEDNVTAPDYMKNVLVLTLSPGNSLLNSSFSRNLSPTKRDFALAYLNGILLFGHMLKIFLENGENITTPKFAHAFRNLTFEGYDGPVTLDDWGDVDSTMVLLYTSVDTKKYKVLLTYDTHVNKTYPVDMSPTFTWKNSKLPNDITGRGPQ

B1: C12 (VHH)
VHH: QVQLVESGGGLVQPGGSLRLSCAASSNIFRAYGMDWYRQAPGKQREMVATIWLSGRSTYTDAVKGRFTISRDNAKNTVYLQMNNLKPEDTAVYYCNAGPTTASSVRQYWGQGTQVTVSS
notes: Alpaca VHH tested as culture supernatant of IPTG-induced HB2151 bacteria (pComb3XSS phagemid); also called clone C12
In the case of B1, the OD450 is reported as 2.

B2: C13 (VHH)
VHH: B1 VHH with S57T, N84S, P99A, T100P, V105G
notes: Alpaca VHH tested as culture supernatant of IPTG-induced HB2151 bacteria (pComb3XSS phagemid); also called clone C13
Work on B2 yielded an OD450 of 0.8.

B3: C08 (VHH)
VHH: EVQLVESGGGLVQPGGSLRLSCAASSNIFRAYGMGWYRQAPGKQREMVAAIWLSGRTEYADAVQGRFTVSRDNAKNTVYLQMNSLKPEDTAVYYCNAGPPTATSVRQYWGQGTQVTVSS
notes: Alpaca VHH tested as culture supernatant of IPTG-induced HB2151 bacteria (pComb3XSS phagemid); also called C8; clone C08
Binder B3 has an OD450 of 0.86.

B4: C15 (VHH)
VHH: B1 VHH with L11V, K64Q
notes: Alpaca VHH tested as culture supernatant of IPTG-induced HB2151 bacteria (pComb3XSS phagemid); also called clone C15
Binder B4 has an OD450 of 1.

B5: C27 (VHH)
VHH: EVQLVESGGGLVQPGGSLRLSCTSSSNIFKIYGMDWYRQAPGKQREIVATIYLSGRTTYSDAVKGRFTISRDNAKNTVYLQMNTLKPEDTAVYYCNAGETTASSVRQYWGQGTQVTVSS
notes: Alpaca VHH tested as culture supernatant of IPTG-induced HB2151 bacteria (pComb3XSS phagemid); also called clone C27
Work on B5 yielded an OD450 of 1.47.

B6: C21 (VHH)
VHH: B5 VHH with E1Q, K30R, N76D, T84S, T100P
notes: Alpaca VHH tested as culture supernatant of IPTG-induced HB2151 bacteria (pComb3XSS phagemid); also called clone C21
B6 was tested, and the OD450 was 0.42.

B7: C30 (VHH)
VHH: QVQLVESGGGLVQPGGSLRLSCAASGSIFRVYGMDWYRQAPGKQRELVASIFLSGRTNYADAVKGRFTLSRDNAKNTMYLQMNSLKPEDTAVYYCNAGETTASSVRQYWGQGTQVTVSS
notes: Alpaca VHH tested as culture supernatant of IPTG-induced HB2151 bacteria (pComb3XSS phagemid); also called clone C30
For B7, the OD450 was 0.93.

B8: C31 (VHH)
VHH: B7 VHH with Q1A, F52W, V117I
notes: Alpaca VHH tested as culture supernatant of IPTG-induced HB2151 bacteria (pComb3XSS phagemid); also called clone C31
Binder B8 has an OD450 of 0.45.
